Numbering of substitutions follows the chain as printed. Names may count otherwise. Blank lines part the entries; values can stand above or below the molecule they belong to.
Legend:
[1] = target: PP1alpha 7-330 (Homo sapiens) (UniProt P62136); experiment: SPR; details: cited from earlier work
PP1α_(1-330) = target: T1, PP1α_(1-330) (UniProt P62136 1-330); experiment: NMR titration; 2D [1H,15N] HSQC of 15N-labelled I3_(1-126) free and in complex; loss of cross-peaks on binding; 283 K, 20 mM Bis-Tris pH 6.8, 500 mM NaCl, 0.5 mM TCEP; details: both partners purified
T1 construct: Protein phosphatase 1 alpha catalytic subunit (PP1α), residues 1-330; also called Protein Phosphatase 1
T1 sequence (P62136 whole entry, the tested form may be a part): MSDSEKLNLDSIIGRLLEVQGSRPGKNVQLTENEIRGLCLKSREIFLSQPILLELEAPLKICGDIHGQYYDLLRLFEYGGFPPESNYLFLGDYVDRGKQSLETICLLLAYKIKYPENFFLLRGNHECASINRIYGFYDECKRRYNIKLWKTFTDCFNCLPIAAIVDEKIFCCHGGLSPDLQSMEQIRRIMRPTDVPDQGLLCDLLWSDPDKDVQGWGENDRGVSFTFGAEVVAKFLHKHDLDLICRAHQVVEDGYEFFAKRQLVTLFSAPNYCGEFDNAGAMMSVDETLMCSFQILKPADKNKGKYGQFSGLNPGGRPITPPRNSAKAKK

[2] = target: T2, SDS22_(56-360):PP1α_(7-330) complex (UniProt Q15435 56-360; P62136 7-330); experiment: SPR; His6-PP1 constructs or SDS22_(56-360):PP1α_(7-330) captured on a Ni-NTA chip (NiHC200M), I3 and variants injected; 25 °C; 20 mM Tris pH 8.0, 500 mM NaCl, 0.5 mM TCEP, 0.05% Tween-20; one-to-one one-state or two-state fit; details: both partners purified
T2 construct: SDS22 (PPP1R7), residues 56-360; Protein phosphatase 1 alpha catalytic subunit (PP1α), residues 7-330; PP1 in this complex lacks the M1 metal; The same complex treated with EDTA (M2 metal extracted) is kept as this molecule and told apart by assay a4; the His6 tag of SDS22 was cleaved, so it is probably His6-PP1; also called SDS22:PP1; SDS22:PP1_(M2-metal-free) / metal-free …
T2 sequence (Q15435 56-360, chain 1 of 2): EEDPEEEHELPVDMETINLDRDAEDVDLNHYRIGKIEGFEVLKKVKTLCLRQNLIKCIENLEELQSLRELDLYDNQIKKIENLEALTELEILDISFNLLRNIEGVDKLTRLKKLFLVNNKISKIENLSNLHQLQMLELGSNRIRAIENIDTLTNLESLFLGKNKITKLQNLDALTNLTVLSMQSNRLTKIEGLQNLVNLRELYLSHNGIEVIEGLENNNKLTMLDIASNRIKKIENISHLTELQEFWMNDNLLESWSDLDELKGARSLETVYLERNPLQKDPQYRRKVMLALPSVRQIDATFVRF
T2 sequence (P62136 7-330, chain 2 of 2): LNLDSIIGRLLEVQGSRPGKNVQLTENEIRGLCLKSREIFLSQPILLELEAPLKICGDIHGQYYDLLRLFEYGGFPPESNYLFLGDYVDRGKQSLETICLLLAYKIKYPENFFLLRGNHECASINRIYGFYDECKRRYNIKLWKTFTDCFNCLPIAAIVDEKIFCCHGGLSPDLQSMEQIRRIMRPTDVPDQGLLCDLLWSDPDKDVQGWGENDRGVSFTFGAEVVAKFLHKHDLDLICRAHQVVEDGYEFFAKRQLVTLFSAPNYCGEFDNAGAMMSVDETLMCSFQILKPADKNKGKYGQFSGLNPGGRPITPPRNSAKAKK

Sequence of PP1alpha 7-330 (Homo sapiens) (P62136 7-330): as the sequence (P62136 7-330, chain 2 of 2) above

Molecule: I3 1-126 (from UniProt O60927)
Kd [1]: 10 nM

Molecule: I3 27-68 (from UniProt O60927)
Kd [1]: 10 nM

binding result (PP1α_(1-330)): binds
Kd [2]: 132 ± 5 nM
B1: Inhibitor-3 (I3), I3_(1-126) (natural protein, human, UniProt O60927 1-126, looked up)
chain: MAEAGAGLSETVTETTVTVTTEPENRSLTIKLRKRKPEKKVEWTSDTVDNEHMGRRSSKCCCIYEKPRAFGESSTESDEEEEEGCGHTHCVRGHRKGRRRATLGPTPTTPPQPPDPSQPPPGPMQH
notes: 15N-labelled in the NMR experiments, unlabelled in SPR; also called FL I3; PPP1R11; source: E. coli BL21 (DE3), purified (Ni-NTA, TEV, heat 95 °C, SEC); not shown: His6, N-terminal, cleaved; MBP, N-terminal, cleaved

Kd [2]: 400 ± 44 nM
B2: I3_(1-126) C60S/C61S/C62S (natural protein, human, UniProt O60927 1-126, looked up)
chain: B1 chain with C60S, C61S, C62S
notes: also called I3_(1-126) SSS; I3 SSS; source: E. coli BL21 (DE3), purified (Ni-NTA, TEV, heat 95 °C, SEC); not shown: His6, N-terminal, cleaved; MBP, N-terminal, cleaved

— PMC10776994, “The SDS22:PP1:I3 complex: SDS22 binding to PP1 loosens the active site metal to prime metal exchange” (The Journal of Biological Chemistry, 2023)
